Test results as given in publication PMC12990809.

Experiments:
Test in all cases: pulldown
[1] = target: T1, Tb927.7.2140 V21F (Trypanosoma brucei) (UniProt D6XKD1); settings: 20 nM protein, 1.5 uM RNA pool; 20 mM HEPES pH 7.8, 70 mM KCl, 10 mM NaCl, 10% glycerol, 2 mM DTT, 0.1 ug/uL BSA; 30 min, 4 C
T1 sequence: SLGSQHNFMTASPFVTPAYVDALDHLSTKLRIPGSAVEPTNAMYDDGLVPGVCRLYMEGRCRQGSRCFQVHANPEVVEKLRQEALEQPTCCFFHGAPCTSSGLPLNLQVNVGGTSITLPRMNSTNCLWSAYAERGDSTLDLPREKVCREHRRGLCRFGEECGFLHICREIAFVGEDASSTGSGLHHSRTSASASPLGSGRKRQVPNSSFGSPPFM

[2] = target: hnrpkl (Tetraodon nigroviridis) (UniProt H3CQ29); settings: 20 nM protein, 1.5 uM RNA pool; 20 mM HEPES pH 7.8, 70 mM KCl, 10 mM NaCl, 10% glycerol, 2 mM DTT, 0.1 ug/uL BSA; 30 min, 4 C
[3] = target: T2, srsf3 (Xenopus tropicalis) (UniProt A0A8J0SH10); settings: 20 nM protein, 1.5 uM RNA pool; 20 mM HEPES pH 7.8, 70 mM KCl, 10 mM NaCl, 10% glycerol, 2 mM DTT, 0.1 ug/uL BSA; 30 min, 4 C
T2 sequence: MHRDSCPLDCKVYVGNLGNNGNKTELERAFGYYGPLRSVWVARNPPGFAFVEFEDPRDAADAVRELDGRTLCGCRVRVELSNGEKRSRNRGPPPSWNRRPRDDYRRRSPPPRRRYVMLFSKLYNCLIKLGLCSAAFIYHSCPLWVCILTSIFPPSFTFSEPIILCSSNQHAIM

[4] = target: T3, PK21303.1 (Cannabis sativa) (UniProt A0A803NH45); settings: 20 nM protein, 1.5 uM RNA pool; 20 mM HEPES pH 7.8, 70 mM KCl, 10 mM NaCl, 10% glycerol, 2 mM DTT, 0.1 ug/uL BSA; 30 min, 4 C
T3 sequence: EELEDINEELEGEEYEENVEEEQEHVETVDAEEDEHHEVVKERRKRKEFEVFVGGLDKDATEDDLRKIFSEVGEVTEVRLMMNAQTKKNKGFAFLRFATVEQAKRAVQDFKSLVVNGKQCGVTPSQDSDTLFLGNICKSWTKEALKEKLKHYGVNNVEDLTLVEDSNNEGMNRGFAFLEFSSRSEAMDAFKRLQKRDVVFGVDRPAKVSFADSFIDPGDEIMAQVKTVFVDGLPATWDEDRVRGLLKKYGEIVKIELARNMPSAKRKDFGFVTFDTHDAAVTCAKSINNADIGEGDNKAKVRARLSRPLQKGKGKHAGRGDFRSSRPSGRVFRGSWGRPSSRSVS

[5] = target: khdrbs1b (Tetraodon nigroviridis) (UniProt H3D6B2); settings: 20 nM protein, 1.5 uM RNA pool; 20 mM HEPES pH 7.8, 70 mM KCl, 10 mM NaCl, 10% glycerol, 2 mM DTT, 0.1 ug/uL BSA; 30 min, 4 C
[6] = target: T4, NAB2 (Saccharomyces cerevisiae) (UniProt P32505); settings: 20 nM protein, 1.5 uM RNA pool; 20 mM HEPES pH 7.8, 70 mM KCl, 10 mM NaCl, 10% glycerol, 2 mM DTT, 0.1 ug/uL BSA; 30 min, 4 C (protocol of this paper; not …); cited from earlier work
T4 sequence: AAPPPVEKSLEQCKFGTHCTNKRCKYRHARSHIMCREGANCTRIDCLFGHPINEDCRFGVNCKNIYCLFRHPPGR

[7] = target: T5, NCU04254 (Neurospora crassa) (UniProt Q7S7T0); settings: 20 nM protein, 1.5 uM RNA pool; 20 mM HEPES pH 7.8, 70 mM KCl, 10 mM NaCl, 10% glycerol, 2 mM DTT, 0.1 ug/uL BSA; 30 min, 4 C
T5 sequence: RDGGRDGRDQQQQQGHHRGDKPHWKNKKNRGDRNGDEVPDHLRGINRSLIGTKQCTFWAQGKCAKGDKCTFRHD

[8] = target: T6, SCHCODRAFT_104251 ins42_DR;V186I (Schizophyllum commune) (UniProt A0ACF2EEN8); settings: 20 nM protein, 1.5 uM RNA pool; 20 mM HEPES pH 7.8, 70 mM KCl, 10 mM NaCl, 10% glycerol, 2 mM DTT, 0.1 ug/uL BSA; 30 min, 4 C
T6 sequence: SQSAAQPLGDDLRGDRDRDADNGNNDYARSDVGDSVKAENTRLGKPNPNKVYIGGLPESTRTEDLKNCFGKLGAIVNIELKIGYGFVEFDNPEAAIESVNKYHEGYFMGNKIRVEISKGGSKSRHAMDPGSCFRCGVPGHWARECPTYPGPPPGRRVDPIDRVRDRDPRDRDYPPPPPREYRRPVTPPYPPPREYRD

[9] = target: T7, RBM24 (Tetraodon nigroviridis) (UniProt H3DM38); settings: 20 nM protein, 1.5 uM RNA pool; 20 mM HEPES pH 7.8, 70 mM KCl, 10 mM NaCl, 10% glycerol, 2 mM DTT, 0.1 ug/uL BSA; 30 min, 4 C
T7 sequence: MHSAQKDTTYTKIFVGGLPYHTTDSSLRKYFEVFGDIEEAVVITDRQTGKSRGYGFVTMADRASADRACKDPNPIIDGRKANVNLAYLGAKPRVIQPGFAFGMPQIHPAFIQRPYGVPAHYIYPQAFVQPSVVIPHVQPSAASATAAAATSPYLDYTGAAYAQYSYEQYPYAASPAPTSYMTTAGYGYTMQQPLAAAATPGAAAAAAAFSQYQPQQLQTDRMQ

[10] = target: T8, CBG00421 (Caenorhabditis briggsae) (UniProt A8WN19); settings: 20 nM protein, 1.5 uM RNA pool; 20 mM HEPES pH 7.8, 70 mM KCl, 10 mM NaCl, 10% glycerol, 2 mM DTT, 0.1 ug/uL BSA; 30 min, 4 C
T8 sequence: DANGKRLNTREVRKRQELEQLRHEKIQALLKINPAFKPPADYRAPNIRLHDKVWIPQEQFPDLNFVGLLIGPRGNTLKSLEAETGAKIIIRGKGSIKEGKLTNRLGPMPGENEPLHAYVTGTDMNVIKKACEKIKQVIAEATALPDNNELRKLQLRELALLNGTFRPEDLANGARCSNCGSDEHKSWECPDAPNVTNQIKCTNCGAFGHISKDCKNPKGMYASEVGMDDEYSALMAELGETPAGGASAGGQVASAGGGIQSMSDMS

MBNL1 (Homo sapiens) = target: T9, MBNL1 (Homo sapiens) (UniProt Q9NR56); settings: 20 nM protein, 1.5 uM RNA pool; 20 mM HEPES pH 7.8, 70 mM KCl, 10 mM NaCl, 10% glycerol, 2 mM DTT, 0.1 ug/uL BSA; 30 min, 4 C (protocol of this paper; not …); cited from earlier work
T9 sequence: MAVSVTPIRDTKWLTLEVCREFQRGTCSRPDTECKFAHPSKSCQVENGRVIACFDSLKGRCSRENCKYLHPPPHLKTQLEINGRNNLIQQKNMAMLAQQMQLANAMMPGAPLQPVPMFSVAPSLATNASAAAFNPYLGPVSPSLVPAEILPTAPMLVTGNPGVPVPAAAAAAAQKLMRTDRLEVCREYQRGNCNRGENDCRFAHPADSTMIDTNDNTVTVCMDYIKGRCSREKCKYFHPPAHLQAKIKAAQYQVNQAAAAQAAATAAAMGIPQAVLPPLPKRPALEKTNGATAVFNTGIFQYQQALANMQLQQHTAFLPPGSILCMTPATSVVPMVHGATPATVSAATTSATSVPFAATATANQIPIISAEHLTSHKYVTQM

[11] = target: T10, msi (Drosophila melanogaster) (UniProt H9ZJL0); settings: 20 nM protein, 1.5 uM RNA pool; 20 mM HEPES pH 7.8, 70 mM KCl, 10 mM NaCl, 10% glycerol, 2 mM DTT, 0.1 ug/uL BSA; 30 min, 4 C (protocol of this paper; not …); cited from earlier work
T10 sequence: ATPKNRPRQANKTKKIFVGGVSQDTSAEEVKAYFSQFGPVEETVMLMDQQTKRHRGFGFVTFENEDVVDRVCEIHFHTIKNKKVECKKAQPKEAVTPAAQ

khdrbs1b (Tetraodon nigroviridis), sequence (H3D6B2 entry or part of it): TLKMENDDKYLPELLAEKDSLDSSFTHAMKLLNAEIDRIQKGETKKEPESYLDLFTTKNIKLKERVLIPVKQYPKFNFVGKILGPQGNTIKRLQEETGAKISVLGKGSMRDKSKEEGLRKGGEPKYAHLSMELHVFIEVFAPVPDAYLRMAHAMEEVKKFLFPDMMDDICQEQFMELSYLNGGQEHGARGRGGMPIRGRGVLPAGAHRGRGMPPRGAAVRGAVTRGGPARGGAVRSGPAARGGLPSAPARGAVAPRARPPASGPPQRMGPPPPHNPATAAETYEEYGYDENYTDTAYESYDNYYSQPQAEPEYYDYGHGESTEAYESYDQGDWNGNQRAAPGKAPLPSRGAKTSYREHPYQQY
hnrpkl (Tetraodon nigroviridis), sequence (H3CQ29 entry or part of it): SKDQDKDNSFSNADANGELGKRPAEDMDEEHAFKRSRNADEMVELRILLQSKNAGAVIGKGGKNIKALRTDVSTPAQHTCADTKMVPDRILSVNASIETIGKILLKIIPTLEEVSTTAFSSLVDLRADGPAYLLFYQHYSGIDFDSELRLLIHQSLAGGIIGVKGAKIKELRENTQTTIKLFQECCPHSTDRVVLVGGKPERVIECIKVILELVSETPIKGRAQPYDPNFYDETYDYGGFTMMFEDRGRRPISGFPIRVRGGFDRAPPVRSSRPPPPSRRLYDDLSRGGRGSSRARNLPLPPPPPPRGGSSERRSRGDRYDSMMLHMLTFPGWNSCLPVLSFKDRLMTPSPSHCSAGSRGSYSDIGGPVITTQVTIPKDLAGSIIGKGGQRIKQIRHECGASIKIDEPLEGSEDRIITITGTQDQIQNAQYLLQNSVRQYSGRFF

Q: For AAAACG [RNAcompete motif RNCMPT00834], which binding signal (z-score (mean of top ten 7-mers)) [1] is on record?
A: The binding signal (z-score (mean of top ten 7-mers)) was 26.

Q: Which binding signal (z-score (mean of top ten 7-mers)) [2] does the source give for AAACCCAA [RNAcompete motif RNCMPT01679] here?
A: Its binding signal (z-score (mean of top ten 7-mers)) is 6.12.

Q: For AACAAC [RNAcompete motif RNCMPT01680], which binding signal (z-score (mean of top ten 7-mers)) [3] is on record?
A: Its binding signal (z-score (mean of top ten 7-mers)) is 9.74.

Q: With AGAAGGA [RNAcompete motif RNCMPT00831] as the substance, how does the binding signal (z-score (mean of top ten 7-mers)) [4] read?
A: The binding signal (z-score (mean of top ten 7-mers)) was 6.57.

Q: With AUAAAAG [RNAcompete motif RNCMPT01673] as the substance, how does the binding signal (z-score (mean of top ten 7-mers)) [5] read?
A: Its binding signal (z-score (mean of top ten 7-mers)) is 8.63.

Q: For CCUCU [RNAcompete motif RNCMPT00042], which binding signal (z-score (mean of top ten 7-mers)) [6] is on record?
A: Its binding signal (z-score (mean of top ten 7-mers)) is 6.1.

Q: With GAAUGG [RNAcompete motif RNCMPT00835] as the substance, how does the binding signal (z-score (mean of top ten 7-mers)) [7] read?
A: Its binding signal (z-score (mean of top ten 7-mers)) is 8.35.

Q: With GACUA [RNAcompete motif RNCMPT00866] as the substance, how does the binding signal (z-score (mean of top ten 7-mers)) [8] read?
A: The binding signal (z-score (mean of top ten 7-mers)) was 6.58.

Q: Which binding signal (z-score (mean of top ten 7-mers)) [9] does the source give for GAGUGUG [RNAcompete motif RNCMPT01677] here?
A: The binding signal (z-score (mean of top ten 7-mers)) was 9.92.

Q: Which binding signal (z-score (mean of top ten 7-mers)) [10] does the source give for GANUAAU [RNAcompete motif RNCMPT00840] here?
A: The binding signal (z-score (mean of top ten 7-mers)) was 14.5.

Q: With GCUUGC [RNAcompete motif RNCMPT00038] as the substance, how does the binding signal (z-score (mean of top ten 7-mers)) (MBNL1 (Homo sapiens)) read?
A: Its binding signal (z-score (mean of top ten 7-mers)) is 11.2.

Q: Which binding signal (z-score (mean of top ten 7-mers)) [11] does the source give for GUAGUU [RNAcompete motif RNCMPT00040] here?
A: Its binding signal (z-score (mean of top ten 7-mers)) is 12.5.
